Measurements published in US20030175703, “RNA aptamers and methods for identifying the same” (published 2003).
Like-named read-outs stand apart in the source and are kept apart here.

How the values were obtained:
angiopoietin-2 (Ang2) [1] = molecular target: T1, angiopoietin-2 (Ang2) (UniProt O15123 O15123:19-496); assay: FIG. 27 gives <10 nM; about 1 nM in competition (FIG. 29)
[2] = molecular target: T2, coagulation factor IXa (FIXa) (UniProt P00740;P00740 P00740:47-191,P00740:227-461); assay: ±0.05; p287 gives about 1 to 3 nM; settings: stem-loop
[3] = molecular target: T3, coagulation factor IX (FIX) (UniProt P00740 P00740:47-461); assay: ±0.8; p287 gives about 6 to 10 nM; settings: stem-loop
[4] = molecular target: T2, coagulation factor IXa (FIXa); assay: competition; cholesterol has modest effect on affinity
[5] = molecular target: T2, coagulation factor IXa (FIXa); assay: filter; double-filter nitrocellulose
thrombin (F2) [6] = molecular target: T4, thrombin (F2) (human, UniProt P00734;P00734 P00734:328-363,P00734:364-622); assay: filter; ±0.7
[7] = molecular target: coagulation factor VIIa (FVIIa) (UniProt P08709;P08709 P08709:61-212,P08709:213-466); assay: competition; physiologic conditions
thrombin (F2) [8] = molecular target: T4, thrombin (F2)
angiopoietin-2 (Ang2) [9] = molecular target: T1, angiopoietin-2 (Ang2)
[10] = molecular target: T3, coagulation factor IX (FIX); assay: ±0.7
[11] = molecular target: T2, coagulation factor IXa (FIXa); assay: filter; ±0.2; 500-700 pM in Table 1

B1: ANG11-1 (ssRNA)
RNA: GGGAGGACGAUGCGGACUAGCCUCAUCAGCUCAUGUGCCCCUCCGCCUGGAUCACCAGACGACUCGCUGAGGAUCCGAGA
modifications: 2'-F
- Kd (angiopoietin-2 (Ang2) [1]): ~5 nM

Binder: AUGGGGACUAUACCGCGUAAUGCUGCCUCCCCAU (ssRNA) [9.3t]
- Kd [2]: 0.58 nM
- Kd [3]: 4.7 nM

Binder: AUGGGGACUAUACCGCGUAAUGCUGCCUCCCCAU (ssRNA, 5' cholesterol) [9.3t-C]
- binding result [4]: binds

B2: 9.28 (ssRNA)
RNA: GGGAGAGAGGAAGAGGGAUGGGCGCCAUACGCACAUUGCUGCAUCGCCUUCCCGUAAGAACCAUAACCCAGAGGUCGAUAGUACUGGAUCCCCCC
modifications: 2'-F pyrimidines
- Kd [5]: 0.592 nM

B3: TOG 25 (TOGGLE-25) (ssRNA)
RNA: GGGAGAGAGGAAGAGGGAUGGGGAACAAAGCUGAAGUACUUACCCAAGAUCAUCCCGAACGACAUAACCCAGAGGUCGAUAGUACUGGAUCCCCCC
- Kd (thrombin (F2) [6]): 2.8 nM

B4: 10.15 (ssRNA)
RNA: GGGAGAGAGGAAGAGGGAUGGGAAGCUCCAUCCAAGCGACGACACGCUCGUCCCGAAAAGAAUCAUAACCCAGAGGUCGAU
modifications: 2'-F pyrimidines
- Kd [7]: ~6.33 nM

Binder: GGGAACAAAGCAGAAGUACUUACCC (ssRNA) [TOG 25 short loop U1]
- Kd (thrombin (F2) [8]): ~250 nM

Binder: GGGAACAAAGCUGAAGUACUUAGGG (ssRNA) [TOG 25 short no stem]
- Kd (thrombin (F2) [8]): ~1000 nM

B5: Ang2 aptamer 11-3 (ssRNA)
RNA: GGGAGGACGAUGCGGUUAACCAUCAGCUCAUGGCCCCUGCCCUCUCAAGGACCACCAGACGACUCGCUGAGGAUCCGAGA
modifications: 2'-F
- Kd (angiopoietin-2 (Ang2) [9]): ~10 nM

B6: RNA 9.3 (ssRNA)
RNA: GGGAGAGAGGAAGAGGGAUGGGGACUAUACCGCGUAAUGCUGCCUCCCCAUUCCGGAACGCUCAUAACCCAGAGGUCGAUAGUACUGGAUCCCCCC
modifications: 2'-F pyrimidines
- Kd [10]: 3.96 nM
- Kd [11]: 0.65 nM

B7: Ang2 aptamer 9-5 (ssRNA)
RNA: GGGAGGACGAUGCGGCGAUCUUUUCGUCAACCGCACGUUGAACUCGGCUCGGCACCAGACGACUCGCUGAGGAUCCGAGA
modifications: 2'-F
- Kd (angiopoietin-2 (Ang2) [9]): ~5 nM

Binder: GGGAACAAAGCUGAAGUACUUACCC (ssRNA) [TOG 25 short (TOGGLE-25t)]
- Kd (thrombin (F2) [8]): ~1 nM

Binder: GGGAACAAAGCUGAAGAACUUACCC (ssRNA) [TOG 25 short loop U2]
- Kd (thrombin (F2) [8]): ~1 nM
